Data published in patent publication US20250215052A1 (UNIVERSITY OF COPENHAGEN, published 2025).
Where no end group is shown, it is not given here.

Molecular target: T1, Protein Interacting with C Kinase-1 (PICK1), purified recombinant (UniProt Q9EP80 1-416)
T1 construct: also called purified PICK1
Test: fluorescence polarization competition, tracer 5-FAM-TAT-C5, purified PICK1

T1 sequence (Q9EP80 whole entry): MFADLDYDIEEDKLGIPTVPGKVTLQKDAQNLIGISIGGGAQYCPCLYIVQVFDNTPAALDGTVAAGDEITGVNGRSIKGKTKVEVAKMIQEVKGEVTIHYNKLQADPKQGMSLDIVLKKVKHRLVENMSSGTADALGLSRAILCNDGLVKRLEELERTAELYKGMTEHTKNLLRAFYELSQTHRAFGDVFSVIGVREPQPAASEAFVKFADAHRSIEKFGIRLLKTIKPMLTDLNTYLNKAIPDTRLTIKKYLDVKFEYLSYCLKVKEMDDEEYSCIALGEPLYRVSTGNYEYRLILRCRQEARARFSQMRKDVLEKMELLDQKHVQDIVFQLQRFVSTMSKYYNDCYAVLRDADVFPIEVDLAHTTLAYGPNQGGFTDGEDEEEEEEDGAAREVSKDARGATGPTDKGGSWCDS

B1: MAP-P4-(C5)2 (peptide)
peptide 1: HWLKV
peptide 2: KLALKLALKALKAALKLA
modifications: not fully specified (N-terminus); also: dimer: two HWLKV copies joined at N-termini by NPEG4 linker, MAP peptide conjugated to the NPEG4 linker
notes: also called MAP-peptide
Fold affinity change (vs TAT-P4-(C5)2): 0.8 fold | Ki: 5.1 nM
